What follows are substances tested against syt2_rat Syt2 (UniProt P29101).

Row | Substance | effect of a mutation on the interaction
1 | Botulinum neurotoxin type B (Clostridium botulinum) (from UniProt P10844) F1194A | disrupting interaction strength
2 | Botulinum neurotoxin type B (Clostridium botulinum) (from UniProt P10844) F1204A | disrupting interaction strength
3 | Botulinum neurotoxin type B (Clostridium botulinum) (from UniProt P10844) K1192E | decreasing interaction strength
4 | Botulinum neurotoxin type B (Clostridium botulinum) (from UniProt P10844) V1118D | decreasing interaction strength
